The source of these data is article PMC9776037.

As usually defined, the pKd is −log10 of the Kd, conventionally taken in molar units.

pKd: −log10 of the molar value.

Test [1] has as its target α2 portion of the human α2δ1 protein (voltage-sensitive calcium channel subunit) (human). In words: localized surface plasmon resonance (LSPR); α2 amide-coupled to gold triangular nanoprisms on glass; sensors incubated with 1 × 10^−16 to 1 × 10^−8 M PLN or PLN domains in PBS pH 7.2; Δλ_LSPR by UV-visible spectroscopy; KD from Hill-Langmuir fit with extrapolated Bmax.
Test [2] has the same target. In words: localized surface plasmon resonance (LSPR); α2-functionalized sensors incubated overnight with full-length PLN (10 nM) or PLN Dm III-2 (100 nM), no GBP; Δλ_LSPR.

For “Perlecan domain IV-2 (PLN Dm IV-2) (domain or fragment)”, the pKd in test [1] was 3.37.

In the case of “Perlecan domain IV-3 (PLN Dm IV-3) (domain or fragment)”, in test [1], the pKd was 3.55.

“Perlecan domain III-2, cysteine-free globular region (laminin IV-A2) (domain or fragment)”: in test [1], the pKd was 10.10. For the same substance, the Δλ LSPR in test [2] was 12.7 nm.

With “Perlecan domain IV-1 (PLN Dm IV-1) (domain or fragment)”, the pKd in test [1] was 6.85.
